The test concerns the target WASP GBD (GTPase binding domain, residues 242-310) (UniProt P42768). Description: NMR titration.

The values below come from publication PMC2719906.

EspFU R5 (five-repeat fragment), sequence (P0DJ88 80-314): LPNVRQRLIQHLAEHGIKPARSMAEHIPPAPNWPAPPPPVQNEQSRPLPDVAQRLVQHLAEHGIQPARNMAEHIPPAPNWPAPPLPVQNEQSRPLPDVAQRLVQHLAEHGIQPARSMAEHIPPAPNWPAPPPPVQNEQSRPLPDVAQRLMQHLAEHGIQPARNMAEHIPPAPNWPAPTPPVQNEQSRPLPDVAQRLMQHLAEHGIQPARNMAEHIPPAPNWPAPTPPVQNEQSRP
WASP GBD (GTPase binding domain, residues 242-310), sequence (P42768 242-310): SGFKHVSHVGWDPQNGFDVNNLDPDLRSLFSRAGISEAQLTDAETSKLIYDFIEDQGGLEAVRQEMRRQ

Consider “EspFU R5 (five-repeat fragment) (from UniProt P0DJ88 80-314) (domain or fragment)”, for which the stoichiometry N was 0.2 EspFU:GBD.
